Results on 2 molecules are retold here after article PMC2956612 (Structure (London, England : 1993), 2010).

Ends that are not written are not given here. * marks the point of attachment. Biotin = O=C1N[C@H]2[C@H](CS[C@H]2CCCCC(=O)*)N1

The experiment has as its target T1, full length VDR/RXRα heterodimer (His-hVDR with Flag-hRXRα) (human, UniProt P11473 1-427; P19793 1-462).
T1 sequence (looked up) 1: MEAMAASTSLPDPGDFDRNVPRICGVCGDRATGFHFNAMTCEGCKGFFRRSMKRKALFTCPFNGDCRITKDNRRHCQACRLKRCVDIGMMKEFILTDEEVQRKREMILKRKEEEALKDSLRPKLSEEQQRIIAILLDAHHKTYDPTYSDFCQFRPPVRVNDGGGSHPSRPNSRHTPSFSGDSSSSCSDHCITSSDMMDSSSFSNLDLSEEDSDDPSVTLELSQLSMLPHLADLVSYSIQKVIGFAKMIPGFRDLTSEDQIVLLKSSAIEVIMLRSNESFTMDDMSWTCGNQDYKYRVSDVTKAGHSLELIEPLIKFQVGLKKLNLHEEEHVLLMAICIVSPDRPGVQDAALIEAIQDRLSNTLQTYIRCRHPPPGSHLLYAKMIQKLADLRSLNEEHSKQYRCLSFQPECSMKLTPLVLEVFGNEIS
T1 sequence (looked up) 2: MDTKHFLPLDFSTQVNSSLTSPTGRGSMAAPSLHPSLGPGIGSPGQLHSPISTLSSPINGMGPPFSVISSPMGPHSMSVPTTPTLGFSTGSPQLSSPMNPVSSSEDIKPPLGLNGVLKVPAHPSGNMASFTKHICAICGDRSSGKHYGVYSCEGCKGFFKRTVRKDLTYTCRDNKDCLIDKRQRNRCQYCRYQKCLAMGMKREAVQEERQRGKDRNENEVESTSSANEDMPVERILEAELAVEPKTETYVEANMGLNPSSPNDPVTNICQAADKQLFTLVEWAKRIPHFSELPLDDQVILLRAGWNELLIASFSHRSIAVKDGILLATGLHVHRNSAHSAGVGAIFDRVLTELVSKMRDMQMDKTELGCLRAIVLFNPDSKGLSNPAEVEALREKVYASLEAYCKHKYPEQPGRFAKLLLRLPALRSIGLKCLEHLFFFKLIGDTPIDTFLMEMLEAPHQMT
The experiment in a line: AlphaScreen or HTRF. Background: In Alpha technology, singlet oxygen from a donor bead excites a nearby acceptor bead.

As to Biotin-KGGTPPPVSSMAGNTKNHPMLMNLLKDNPAQDF [biotinylated DRIP 205-2 peptide], the binding result was “binds”. In the case of Biotin-KGGGGSCPSSHSSLTERHKILHRLLQEGSPSDI [biotinylated SRC1-NR2 peptide] it was “binds”.
